{"source": "paper PMC8695629", "origin": "cited, not measured here", "key": {"[1]": {"biological_target": "DOT1L 10-mer peptide (Homo sapiens) (UniProt Q8TEK3)"}, "[2]": {"biological_target": "CBX8 (Homo sapiens) (UniProt Q9HC52)", "sequence (Q9HC52 whole entry A335V)": "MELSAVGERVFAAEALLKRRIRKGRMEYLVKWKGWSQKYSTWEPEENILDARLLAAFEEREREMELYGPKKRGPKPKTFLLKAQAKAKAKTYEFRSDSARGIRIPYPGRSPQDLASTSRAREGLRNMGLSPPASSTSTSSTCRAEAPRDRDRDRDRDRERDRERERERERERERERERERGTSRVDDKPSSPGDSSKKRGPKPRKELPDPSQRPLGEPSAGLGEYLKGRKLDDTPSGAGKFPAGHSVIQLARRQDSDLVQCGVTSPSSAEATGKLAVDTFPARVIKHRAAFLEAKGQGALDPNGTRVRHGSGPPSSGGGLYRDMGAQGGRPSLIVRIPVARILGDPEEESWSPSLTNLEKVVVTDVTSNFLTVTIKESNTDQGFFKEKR"}, "[3]": {"biological_target": "BCOR (Homo sapiens) (UniProt Q6W2J9)", "sequence (Q6W2J9 whole entry)": "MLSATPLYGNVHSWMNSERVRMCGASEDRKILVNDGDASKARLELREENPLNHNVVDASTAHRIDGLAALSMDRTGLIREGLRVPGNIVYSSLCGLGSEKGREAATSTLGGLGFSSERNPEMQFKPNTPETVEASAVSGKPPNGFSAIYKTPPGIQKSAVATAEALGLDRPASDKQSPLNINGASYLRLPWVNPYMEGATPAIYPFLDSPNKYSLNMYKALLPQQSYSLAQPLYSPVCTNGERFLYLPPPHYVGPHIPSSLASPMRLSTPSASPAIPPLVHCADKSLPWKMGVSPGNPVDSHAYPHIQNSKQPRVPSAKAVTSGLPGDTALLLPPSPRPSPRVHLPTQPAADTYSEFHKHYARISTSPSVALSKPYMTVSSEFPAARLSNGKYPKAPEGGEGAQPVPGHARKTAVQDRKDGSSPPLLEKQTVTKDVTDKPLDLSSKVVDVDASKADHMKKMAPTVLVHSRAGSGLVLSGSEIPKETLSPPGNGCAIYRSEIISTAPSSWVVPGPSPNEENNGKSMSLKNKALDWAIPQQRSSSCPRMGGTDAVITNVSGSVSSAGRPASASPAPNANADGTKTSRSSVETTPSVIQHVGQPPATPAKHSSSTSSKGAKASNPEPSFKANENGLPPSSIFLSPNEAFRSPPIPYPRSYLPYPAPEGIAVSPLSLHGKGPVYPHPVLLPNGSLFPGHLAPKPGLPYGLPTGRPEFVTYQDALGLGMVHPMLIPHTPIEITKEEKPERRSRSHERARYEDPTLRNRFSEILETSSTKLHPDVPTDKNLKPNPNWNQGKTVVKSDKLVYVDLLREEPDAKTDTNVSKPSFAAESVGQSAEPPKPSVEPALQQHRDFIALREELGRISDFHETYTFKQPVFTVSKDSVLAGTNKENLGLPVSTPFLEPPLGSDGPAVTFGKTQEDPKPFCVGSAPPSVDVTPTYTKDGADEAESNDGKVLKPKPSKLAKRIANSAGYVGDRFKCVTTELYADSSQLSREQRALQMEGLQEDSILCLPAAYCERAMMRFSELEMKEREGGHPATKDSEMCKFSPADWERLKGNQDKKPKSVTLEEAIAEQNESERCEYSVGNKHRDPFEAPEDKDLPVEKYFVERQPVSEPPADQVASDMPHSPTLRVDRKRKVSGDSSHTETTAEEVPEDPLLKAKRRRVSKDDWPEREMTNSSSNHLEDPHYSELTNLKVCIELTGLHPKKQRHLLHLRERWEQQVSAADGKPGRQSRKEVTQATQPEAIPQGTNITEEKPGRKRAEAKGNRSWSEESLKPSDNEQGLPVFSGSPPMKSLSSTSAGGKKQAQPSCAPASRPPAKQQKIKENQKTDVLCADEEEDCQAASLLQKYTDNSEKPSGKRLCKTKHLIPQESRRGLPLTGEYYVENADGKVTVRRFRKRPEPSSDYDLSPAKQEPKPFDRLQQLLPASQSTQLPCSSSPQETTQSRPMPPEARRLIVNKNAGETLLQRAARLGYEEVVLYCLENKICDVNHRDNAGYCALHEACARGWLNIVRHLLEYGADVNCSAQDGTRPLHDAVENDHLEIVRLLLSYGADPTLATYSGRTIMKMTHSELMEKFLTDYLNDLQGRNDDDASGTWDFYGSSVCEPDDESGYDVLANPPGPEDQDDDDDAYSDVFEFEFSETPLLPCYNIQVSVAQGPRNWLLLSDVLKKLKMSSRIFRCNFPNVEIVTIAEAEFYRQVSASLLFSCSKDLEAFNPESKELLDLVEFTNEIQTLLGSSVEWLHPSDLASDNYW"}, "[4]": {"biological_target": "DOT1L 7-mer peptide (Homo sapiens) (UniProt Q8TEK3)", "experiment": "fluorescence polarization"}}}
{"substance": "MLLT3 (AF9) AHD (from UniProt P42568)", "values": [{"measurement": "Kd", "setting": "[1]", "value": 0.019, "unit": "µM"}, {"measurement": "Kd", "setting": "[2]", "value": 0.012, "unit": "µM"}, {"measurement": "Kd", "setting": "[3]", "value": "> 3", "unit": "µM"}, {"measurement": "Ki", "setting": "[4]", "value": 0.16, "unit": "µM"}]}
